Substrate in this series: O=[N+]([O-])c1ccc(O[C@@H]2O[C@H](CO)[C@@H](O)[C@H](O)[C@H]2O)cc1
Nature of the series: purified protein.

Where [1] appears, read: enzyme storage buffer (HEPES elution buffer), ten biological replicates.

Changes are numbered by the printed parent chain. Names and notes keep the numbering of the source.

B1: β-glucosidase B (BglB) (Paenibacillus polymyxa) (protein)
chain: MSENTFIFPATFMWGTSTSSYQIEGGTDEGGRTPSIWDTFCQIPGKVIGGDCGDVACDHFHHFKEDVQLMKQLGFLHYRFSVAWPRIMPAAGIINEEGLLFYEHLLDEIELAGLIPMLTLYHWDLPQWIEDEGGWTQRETIQHFKTYASVIMDRFGERINWWNTINEPYCASILGYGTGEHAPGHENWREAFTAAHHILMCHGIASNLHKEKGLTGKIGITLNMEHVDAASERPEDVAAAIRRDGFINRWFAEPLFNGKYPEDMVEWYGTYLNGLDFVQPGDMELIQQPGDFLGINYYTRSIIRSTNDASLLQVEQVHMEEPVTDMGWEIHPESFYKLLTRIEKDFSKGLPILITENGAAMRDELVNGQIEDTGRHGYIEEHLKACHRFIEEGGQLKGYFVWSFLDNFEWAWGYSKRFGIVHINYETQERTPKQSALWFKQMMAKNGF
The Km is the concentration of substrate that gives half-maximal velocity. A word on the kcat: it is the maximal rate divided by the concentration of active sites. In the case of B1, under setting [1], the Km was determined as 5.0 ± 0.2 mM and the kcat is 14.7 ± 0.167 s⁻¹.

B2: β-glucosidase B (BglB) (Paenibacillus polymyxa; E225A) (protein)
chain: B1 chain with E225A
As usually defined, the kcat/Km is the turnover number divided by the Michaelis constant. For B2, under “enzyme storage buffer”, the Km was found to be 0.63 ± 0.15 mM, the kcat stood at 1.5 s⁻¹ and the kcat/Km came to 2390 ± 602 M⁻¹ s⁻¹.

B3: β-glucosidase B (BglB) (Paenibacillus polymyxa; R243A) (protein)
chain: B1 chain with R243A
Take B3: under “enzyme storage buffer”, the Km is reported as 19.46 ± 1.17 mM, the kcat was found to be 184 s⁻¹ and the kcat/Km is 9430 ± 606 M⁻¹ s⁻¹.

The values are drawn from publication PMC4729467, “Kinetic Characterization of 100 Glycoside Hydrolase Mutants Enables the Discovery of Structural Features Correlated with Kinetic Constants” (PLoS ONE, 2016).
